Data reported in patent US20110177065A1.

Biological target: IL-1 receptor (human) (UniProt P14778)
Test: cell-based or functional assay

UniProt P14778, sequence (P14778 18-569): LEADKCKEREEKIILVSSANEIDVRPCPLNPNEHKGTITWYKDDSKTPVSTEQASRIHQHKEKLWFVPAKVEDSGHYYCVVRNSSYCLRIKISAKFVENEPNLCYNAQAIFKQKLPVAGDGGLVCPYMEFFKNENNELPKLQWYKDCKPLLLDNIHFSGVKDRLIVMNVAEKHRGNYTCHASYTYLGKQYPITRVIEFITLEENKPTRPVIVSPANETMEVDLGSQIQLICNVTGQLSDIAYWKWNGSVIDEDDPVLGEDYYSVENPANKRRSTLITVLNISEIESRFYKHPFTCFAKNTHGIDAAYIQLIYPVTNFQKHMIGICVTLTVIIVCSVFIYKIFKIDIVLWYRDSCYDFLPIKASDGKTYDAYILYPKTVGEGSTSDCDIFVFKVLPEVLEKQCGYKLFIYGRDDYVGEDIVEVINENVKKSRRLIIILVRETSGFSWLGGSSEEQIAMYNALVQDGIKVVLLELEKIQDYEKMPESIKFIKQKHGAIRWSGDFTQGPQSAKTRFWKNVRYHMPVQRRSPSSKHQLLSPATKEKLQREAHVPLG

“IL-1 receptor antagonist (IL-1Ra) (from UniProt P18510 26-177) (ligand)” was tested, and the antiviral activity of IFN-gamma (endpoint of 50% protection from viral cytopathic effect, human WISH cells) was 125 IU/ml and the level of IL-18BP in HaCat culture supernatants after IFN-gamma (ELISA) was 0.35 ng/mL.
